Assay results taken from patent US20110294728A1, “Antiviral Polypeptides” (priority 2008, published 2011).
Where no end group is shown, it is not given here.

These binders were tested against HA-tagged Integrase (stably expressed in HeLa cells) (HIV-1) (assay: cell-based or functional assay).

Row | Binder | IN half-life (cycloheximide treatment, 1 µM PAW) [min] | integrase located in the nucleus (High Content Screening, HeLa cells) [%]
1 | GTKWLTEWIPLTAEAE (modifications not checked) [PAW] | 17 | 35

These binders were tested against HIV-1 integrase (HIV-1) (assay: cell-based or functional assay).

Row | Binder | IC50 3′-proc (gel electrophoresis) [µM] | EC50 (µM) 3′processing [µM] | EC50 (µM) IN/DNA binding [µM] | EC50 (µM) IN/DNA dissociation [µM] | IC50 3′-proc [µM]
2 | GTKWLTEWIPLTAEAEC (not fully specified) [PAW-FITC] | 10 |  |  |  | 
3 | GTKWLTEWIPLTAEAE (modifications not checked) [PAW] |  | 12 | 10 | 15 | 12.7
4 | GTKWLTEVWPL (modifications not checked) [P16] |  | 10 | 8 | 11 | 
5 | GTKWLTEWIPL (modifications not checked) [P24] |  | 33 | 35 | 21 | 
6 | KWLTEWIPLTAEAE (modifications not checked) [P26] |  | 28 | 54 | 67 | 
7 | GTKWLTEWIPLTAE (modifications not checked) [P27] |  | > 100 | > 100 | > 100 | 

These binders were tested against T1, HIV-1 reverse transcriptase, heterodimeric p66/p51 (HIV-1), P03366 (assay: RT polymerase inhibition assay).

Row | Binder | Ki [µM]
8 | GTKWLTEWIPLTAEAE (modifications not checked) [PAW] | 0.7
9 | GTKWLTEVWPL (modifications not checked) [P16] | 14.4
10 | GTKWLTEWIPLTAE (modifications not checked) [P27] | 0.05
11 | CGTKWLTEWIPLTAEAEC (modifications not checked) [PAW-C1] | 0.2
12 | GCKWLTEWIPLTAEAEC (modifications not checked) [PAW-C2] | 1.4
13 | CGTKWLTEVWPLC (modifications not checked) [P16C1] | 32.1
14 | CGTKWLTEWIPLTAEC (modifications not checked) [P27C1] | 0.042

Each binder was assayed against T1, HIV-1 reverse transcriptase, … (assay: RT polymerase inhibition assay, Ki).

Row | Binder | fold greater Ki than PAW [fold] | fold improvement in efficiency over P6 [fold] | fold improvement in efficiency over Pep-A [fold] | fold reduction in efficiency against PAW [fold] | fold increase in efficiency against PAW [fold] | fold reduction in potency against P1 [fold] | fold increase in potency against Pep-A [fold] | fold reduction in efficiency against P1 [fold]
15 | GTKWLTEWIPLTAEAEC (not fully specified) [PAW-FITC] | 3.8 |  |  |  |  |  |  | 
16 | GTKWLTEWIPLTAEAE (modifications not checked) [PAW] |  | 10 | 50 |  |  |  |  | 
17 | GTKWLTEVWPL (modifications not checked) [P16] |  |  |  | 20 |  |  |  | 
18 | KWLTEWIPLTAEAE (modifications not checked) [P26] |  |  |  | 2.5 |  |  |  | 
19 | GTKWLTEWIPLTAE (modifications not checked) [P27] |  |  |  |  | 14 |  |  | 
20 | GTKALTEAIPLTEEAE (modifications not checked) [P9] |  |  |  |  |  | 2 |  | 
21 | GTKALTEVIPLTEEAE (modifications not checked) [P1] |  |  |  |  |  |  | 5 | 
22 | GTKALTAVIPLTEEAE (modifications not checked) [P8] |  |  |  |  |  |  |  | 8
23 | GTAALTEVIPLTEEAE (modifications not checked) [P4] |  |  |  |  |  | 2 |  | 
24 | GTKALAEVIPLTEEAE (modifications not checked) [P7] |  |  |  |  |  | 2 |  | 
25 | GTKGLTEVIPLTEEAE (modifications not checked) [P5] |  |  |  |  |  | 2.7 |  | 
26 | GTKAWTEVWPL (modifications not checked) [P17] |  |  |  | 50 |  |  |  | 

What follows are binders tested against T2, RT:p/t (HIV-1 RT heterodimer pre-bound to DNA/DNA primer/template) (HIV-1), P03366 (assay: steady-state fluorescence titration).

Row | Binder | fold increase in affinity against RT without p/t [fold] | fold lower Kd than unlabelled PAW [fold]
27 | GTKWLTEWIPLTAEAEC (not fully specified) [PAW-FITC] | 5 | 5.6

Each binder was assayed against HIV-1 integrase (HIV-1) (assay: steady state fluorescence and anisotropy).

Row | Binder | Kd [µM]
28 | GTKWLTEWIPLTAEAE (modifications not checked) [PAW] | 0.23
29 | GTKWLTEVWPL (modifications not checked) [P16] | 0.12
30 | GTKWLTEWIPL (modifications not checked) [P24] | 0.35
31 | KWLTEWIPLTAEAE (modifications not checked) [P26] | 0.32
32 | GTKWLTEWIPLTAE (modifications not checked) [P27] | > 100
33 | CGTKWLTEWIPLTAEAEC (modifications not checked) [PAW-C1] | 0.29
34 | GCKWLTEWIPLTAEAEC (modifications not checked) [PAW-C2] | 0.12
35 | CGTKWLTEVWPLC (modifications not checked) [P16C1] | 0.09

The binders below were run against T1, HIV-1 reverse transcriptase, … (assay: RT polymerase inhibition assay, Ki from Dixon plot).

Row | Binder | Ki [µM]
36 | GTKWLTEWIPLTAEAEC (not fully specified) [PAW-FITC] | 2.7
37 | GTKWLTEWIPLTAEAE (modifications not checked) [PAW] | 0.7
38 | GTKWLTEVWPL (modifications not checked) [P16] | 14
39 | GTKWLTEWIPL (modifications not checked) [P24] | 0.7
40 | KWLTEWIPLTAEAE (modifications not checked) [P26] | 1.8
41 | GTKWLTEWIPLTAE (modifications not checked) [P27] | 0.05
42 | RGTKALTEVIPLTEEAE (modifications not checked) [Pep-A] | 35
43 | GTKALTEAIPLTEEAE (modifications not checked) [P9] | 15
44 | GTKALTEVAPLTEEAE (modifications not checked) [P10] | 7.3
45 | GTKALTEVIALTEEAE (modifications not checked) [P11] | 7
46 | GTKALTEVIPATEEAE (modifications not checked) [P12] | 22
47 | GTKALTEVIPLAEEAE (modifications not checked) [P13] | 10.2
48 | GAKTETLVIPETELEA (modifications not checked) [Pscramble] | 61
49 | GTKALTEVIPLTEEAE (modifications not checked) [P1] | 7.5
50 | GTKALTAVIPLTEEAE (modifications not checked) [P8] | 57
51 | GTAALTEVIPLTEEAE (modifications not checked) [P4] | 15
52 | GTKALAEVIPLTEEAE (modifications not checked) [P7] | 13.5
53 | GTKGLTEVIPLTEEAE (modifications not checked) [P5] | 20
54 | ATKALTEVIPLTEEAE (modifications not checked) [P2] | 28
55 | GTKAWTEVWPL (modifications not checked) [P17] | 35
56 | GTKALTEVIPLT (modifications not checked) [P18] | 53
57 | GTKAATEVIPLT (modifications not checked) [P19] | 49
58 | GTKWATEWAPLTAEAE (modifications not checked) [P28] | 2
59 | KWLTEWIPLTAE (modifications not checked) [P29] | 1
60 | GTKAATEVIPLTEEAE (modifications not checked) [P6] | 5.7

These binders were tested against HIV-1 integrase (HIV-1) (assay: IN 3′ processing inhibition, fluorescence anisotropy).

Row | Binder | Ki [µM]
61 | GTKWLTEWIPLTAEAE (modifications not checked) [PAW] | 12
62 | GTKWLTEVWPL (modifications not checked) [P16] | 10
63 | GTKWLTEWIPLTAE (modifications not checked) [P27] | > 100
64 | CGTKWLTEWIPLTAEAEC (modifications not checked) [PAW-C1] | 21
65 | GCKWLTEWIPLTAEAEC (modifications not checked) [PAW-C2] | 8
66 | CGTKWLTEVWPLC (modifications not checked) [P16C1] | 4.3
67 | CGTKWLTEWIPLTAEC (modifications not checked) [P27C1] | > 100

Each binder was assayed against T1, HIV-1 reverse transcriptase, … (assay: steady-state fluorescence titration, 200 nM FITC-PAW titrated with RT).

Row | Binder | Kd [µM] | quenching of FITC-PAW fluorescence [%]
68 | GTKWLTEWIPLTAEAEC (not fully specified) [PAW-FITC] | 0.033 | 39

What follows are binders tested against T2, RT:p/t (HIV-1 RT heterodimer pre-bound …) (assay: steady-state fluorescence titration, 20 nM RT:FAM-p/t titrated with PAW).

Row | Binder | Kd [µM] | quenching of fluorescence of FAM-labelled p/t [%]
69 | GTKWLTEWIPLTAEAE (modifications not checked) [PAW] | 0.04 | 39

What follows are binders tested against T2, RT:p/t (HIV-1 RT heterodimer pre-bound …) (assay: steady-state fluorescence titration, 200 nM FITC-PAW titrated with RT:p/t).

Row | Binder | Kd [µM] | quenching of FITC-PAW fluorescence [%]
70 | GTKWLTEWIPLTAEAEC (not fully specified) [PAW-FITC] | 0.0071 | 57

Each binder was assayed against HIV-1 integrase (HIV-1) (assay: steady-state fluorescence anisotropy, fluorescein-labelled peptide titrated with IN).

Row | Binder | Kd [µM] | Δr (change of steady-state anisotropy)
71 | GTKWLTEWIPLTAEAEC (not fully specified) [PAW-FITC] | 0.4 | 0.06

What follows are binders tested against HIV-1 integrase (HIV-1) (assay: dissociation of the IN/LEDGF complex, AlphaScreen and immunoprecipitation; partner displaced: LEDGF).

Row | Binder | EC50 [µM]
72 | GTKWLTEWIPLTAEAE (modifications not checked) [PAW] | 2
73 | GTKWLTEVWPL (modifications not checked) [P16] | 0.8
74 | GTKWLTEWIPL (modifications not checked) [P24] | 13
75 | KWLTEWIPLTAEAE (modifications not checked) [P26] | > 50
